# Reference: IntAct's records for PubMed 18796637
# B1: B-box zinc finger protein 22 (Arabidopsis thaliana (Mouse-ear cress)), Q9SYM2 (parent)
# chain: MKIQCNVCEAAEATVLCCADEAALCWACDEKIHAANKLAGKHQRVPLSASASSIPKCDICQEASGFFFCLQDRALLCRKCDVAIHTVNPHVSAHQRFLLTGIKVGLESIDTGPSTKSSPTNDDKTMETKPFVQSIPEPQKMAFDHHHHQQQQEQQEGVIPGTKVNDQTSTKLPLVSSGSTTGSIPQWQIEEIFGLTDFDQSYEYMENNGSSKADTSRRGDSDSSSMMRSAEEDGEDNNNCLGGETSWAVPQIQSPPTASGLNWPKHFHHHSVFVPDITSSTPYTGSSPNQRVGKRRRRF
# partner: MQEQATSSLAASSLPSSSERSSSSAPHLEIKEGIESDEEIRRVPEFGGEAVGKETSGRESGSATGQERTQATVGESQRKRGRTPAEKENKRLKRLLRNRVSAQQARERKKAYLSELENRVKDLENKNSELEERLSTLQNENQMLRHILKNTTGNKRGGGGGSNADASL
# Variants of: B1
# Details: with hy5_arath HY5, O24646
row,effect of a mutation on the interaction,Variant
1,disrupting interaction,D81A
2,disrupting interaction,D72A
